From patent publication US20240325557A1, “TREATMENT OF CANCER” (INNATE PHARMA, priority 2020, published 2024)
Numbering of substitutions follows the chain as printed. Entries after “also recorded” stand apart in the source; their conditions may differ.

T1: wild-type human Nectin-4 protein (huNectin4-his-BirA) (Homo sapiens, UniProt Q96NY8)
T1 sequence (Q96NY8 with tags, fused parts or gaps): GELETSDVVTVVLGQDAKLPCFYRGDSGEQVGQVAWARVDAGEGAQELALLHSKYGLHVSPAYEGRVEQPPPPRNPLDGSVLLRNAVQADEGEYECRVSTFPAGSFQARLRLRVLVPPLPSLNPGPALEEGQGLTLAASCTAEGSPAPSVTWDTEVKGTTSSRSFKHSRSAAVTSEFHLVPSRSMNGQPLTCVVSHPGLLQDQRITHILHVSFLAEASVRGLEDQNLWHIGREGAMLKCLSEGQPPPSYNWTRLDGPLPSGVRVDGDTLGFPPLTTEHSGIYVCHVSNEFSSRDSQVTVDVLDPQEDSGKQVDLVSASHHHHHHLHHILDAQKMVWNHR

T2: Hu-Nectin4 IgC1C2-V5 (modified Nectin-4 lacking the Ig-like V domain, C1C2 construct) (Homo sapiens, UniProt Q96NY8)
T2 construct: expressed in transfected cells; host or cells: CHO
T2 sequence (Q96NY8 148-510): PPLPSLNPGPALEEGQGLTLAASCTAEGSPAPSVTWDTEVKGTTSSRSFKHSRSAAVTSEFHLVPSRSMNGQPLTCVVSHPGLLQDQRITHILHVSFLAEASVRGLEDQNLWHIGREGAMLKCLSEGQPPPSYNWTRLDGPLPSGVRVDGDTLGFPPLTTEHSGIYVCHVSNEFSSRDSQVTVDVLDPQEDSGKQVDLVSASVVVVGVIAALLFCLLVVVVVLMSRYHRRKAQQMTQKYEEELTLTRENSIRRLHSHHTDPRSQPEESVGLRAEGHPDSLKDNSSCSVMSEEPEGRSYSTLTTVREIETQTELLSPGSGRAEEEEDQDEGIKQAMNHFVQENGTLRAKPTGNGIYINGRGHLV

B1: N41 (antibody, V domains shown)
VH: QVQLKQSGPGLVQPSQSLSITCTVSGFSLTNYGVHWVRQSPGKGLEWLGVIWSGGSTDYNAAFISRLSISKDTSKSQVFFKMNSLQADDTAIYYCARELIHAMDNWGQGTSVTVSS
VL: DIQMTQSPASLSVSVGETVTITCRASENIYSNLAWYQQKQGNSPQLLVFAATNLADGVPSRFSGSGSGTQYSLKINSLQSEDFGTYYCQHFWGTPTFGGGTKLEIK
B2: 5E7 (antibody, V domains shown)
VH: QVQLQQPGAELVKPGASVKLSCKASGYIFTSYWMHWVKQRPGQGLEWIGEIDPSDSYTNYNQKFKGKATLTLDKSSSTTYMQLSSLTSEDSAVYYCVRGYGNYGDYWGQGTTLTVSS
VL: DVVMTQAAFSNPVTLGTSASISCRSSKSLLHSNGITYLYWYLQKPGQSPQLLIYQMSNLASGVPDRFSSSGSGTDFTLRISRVEAEDVGVYYCAQNLELPWTFGGGTKLEIK
B3: 10B12: anti-Nectin-4 antibody, VH SEQ ID NO: 24, VL SEQ ID NO: 25, binds junction of domain C1 and V (antibody, listed as Mus musculus, V domains shown)
VH: B2 VH with I28T, L72V, T79A
VL: B2 VL with V2I

Legend:
[1] = biological target: T1, wild-type human Nectin-4 protein (huNectin4-his-BirA); assay: Affinity determination by SPR (Biacore T200); format: binding; conditions: 25° C.
Method: Antibodies were tested for binding affinity to the wild-type human Nectin-4 protein by SPR (Surface Plasmon Resonance) methods. Measurements were performed on a Biacore T200 apparatus (Biacore GE Healthcare) at 25° C. Sensorgrams were analyzed with Biacore T100 Evaluation software. A CMR Sensor Chip with immobilized Protein A at about 600 RU was used. Anti-Nectin-4 antibodies were captured onto the Protein-A chip (antibodies diluted to 1 μg/ml in HBS-EP+1× buffer and injected over 120s at 40 μL/min). Recombinant human monomeric huNectin4-his-BirA protein was injected at different concentrations in a range from 100 nM to 1.56 nM over captured antibodies (HuNectin4-His-BirA diluted in HBS-EP+1× in ½ dilutions, injected over 120s at 40 μl/min) and allowed to dissociate for 600s. The chip was regenerated with NaOh 10 mM 2× for 30s at 40 μl/min. The sensorgram sets were fitted using the 1:1 kinetic binding model or two state reaction model, as a function of the profile of the curves.

[2] = biological target: T2, Hu-Nectin4 IgC1C2-V5 (modified Nectin-4 lacking the Ig-like V domain, C1C2 construct); assay: Flow cytometry binding to cells expressing the Nectin-4 C1C2 construct
Method: The characterization of the binding of the antibodies on Nectin-4 domains was performed by flow cytometry using cells made to express the wild-type human Nectin-4 protein and cells made to express a modified Nectin-4 having the Ig-like C2 type 1 and the Ig-like C2 type 2 domains and lacking the Ig-like V domain (the C1C2 construct). The latter protein additionally bears a V5 tag for flow cytometry cell sorting, and cells were used as Nectin4-C1C2-V5 sorted cells.
Wild-type Nectin-4 (the CI.3C8 cell line), a C2 construct (containing the Ig-like C2 type 2 domain and lacking both the V and the C1 domains) and the C1C2 construct allow the determination of whether test antibodies bind to the V or different C domains. Briefly, nucleic acid sequences encoding different human Nectin-4 domains were amplified by PCR. The PCR products were inserted into an expression vector at appropriate restriction sites. A leader peptide, and for C1C2 and C2 an N-terminal V5 tag having the amino acid sequence […] (SEQ ID NO: 41), were added, and expression at the surface of cells was confirmed by flow cytometry. The amino acid sequences of the resulting different human Nectin-4 domain fragment-containing proteins are shown below (V5 tag underlined). The vectors were then transfected into the CHO cell line to obtain stable clones expressing the different Nectin-4 domain proteins at the cell surface.

[3] = Binding to HEK-293T cells, negative control of the point mutant test; parameters: species or system human
Method: (§1) Nectin-4 mutants were generated by PCR. The sequences amplified were run on agarose gel and purified using the Macherey Nagel PCR Clean-Up Gel Extraction kit. The purified PCR products generated for each mutant were then ligated into an expression vector, with the ClonTech InFusion system. The vectors containing the mutated sequences were prepared as Miniprep and sequenced. After sequencing, the vectors containing the mutated sequences were prepared as Midiprep using the Promega PureYield™ Plasmid Midiprep System. HEK293T cells were grown in DMEM medium (Invitrogen), transfected with vectors using Invitrogen's Lipofectamine 2000 and incubated at 37° C. in a CO2 incubator for 48 hours prior to testing for transgene expression. The targeted amino acid mutations are shown in Table 2 below, listing the residue present in wild-type Nectin-4/position of residue/residue present in mutant Nectin-4, with position reference being to the Nectin-4 protein with leader peptide shown in SEQ ID NO: 1.

[4] = test system: Nectin-4 Mutant 5 (A158P/E160G/S243A/F244S); assay: Binding to cell surface expressed Nectin-4 point mutant; parameters: species or system human; conditions: HEK-293T; results irrelevant, due to an absence of expression of said protein
Text: Combined with the published structures of the Nectin-4 domains, Nectin-4 mutations at surface exposed amino acids residues were designed. Nectin-4 domain structure was modelled based on Protein Data Bank reference: 4FRW (domains V et C1). Human Nectin-4 used was NCBI Reference Sequence: NP_112178.2, mouse Nectin-4 used was NCBI Reference Sequence: AAL79833.1, cynomolgus Nectin-4 used was NCBI Reference Sequence: XP_005541277.1, rat Nectin-4 used was NCBI Reference Sequence: NP_001102546.1. The cells expressing the Nectin-4 mutants are then be used for testing anti-Nectin-4 antibodies for loss of binding to different Nectin-4 mutants to identify antibodies that bind to the same site on Nectin-4. […] FIGS. 12A and 12B show a molecular model of the human Nectin-4 protein, indicating the position of substituted residues in mutants 7 (12A) and in mutants 7bis (12B); these mutants are in the C1 domain identify two sites at the junction of domain C1 and V domain that are on opposing faces of the Nectin-4 protein.
as §1

Molecule | ka [1] [M⁻¹ s⁻¹] | kd [1] [s⁻¹] | binding to the C1C2 construct [2] | association, EXPI medium (negative control) [3] | association with Nectin-4 Mutant 5 [4]
B1 | 580000 | 0.00087 | lost all binding to the C1C2 construct | − | −
B2 | 620000 | 0.003 | partial loss of binding to the C1C2 construct; also recorded: retain binding to the C1C2 construct | − | −
B3 | 860000 | 0.01 | partial loss of binding to the C1C2 construct; also recorded: retain binding to the C1C2 construct | − | −
